Source: the supplement of paper PMC9112550, “Optimization of the antimicrobial peptide Bac7 by deep mutational scanning” (BMC Biology, 2022)

test system: Escherichia coli TOP10; experiment: shrunken log2 fold change of peptide-encoding DNA abundance (4.5 h post-induction vs induction); higher = less antimicrobial activity (less host growth inhibition); details: time post-induction: 4.5 h; library: site-saturation at positions 5, 18, 19, 20
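Also: peptides expressed intracellularly from a pBAD plasmid library in pooled LB shake-flask culture, induced with 0.3% L-arabinose, DNA abundance read by NGS, three biological replicates, DESeq2 with apeglm shrinkage.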

Row | Sequence | shrunken log2 fold change
1 | RRIRLRPPRLPRPRPRPMKWPRP | 0.0101
2 | RRIRLRPPRLPRPRPRPMLSPRP | 0.0192
3 | RRIRLRPPRLPRPRPRPMMAPRP | -0.137
4 | RRIRLRPPRLPRPRPRPMMNPRP | -0.18
5 | RRIRLRPPRLPRPRPRPMMRPRP | 0.196
6 | RRIRLRPPRLPRPRPRPMNGPRP | -0.618
7 | RRIRLRPPRLPRPRPRPMNLPRP | -0.31
8 | RRIRLRPPRLPRPRPRPMNMPRP | -0.0334
9 | RRIRLRPPRLPRPRPRPMPAPRP | 0.221
10 | RRIRLRPPRLPRPRPRPMPGPRP | 0.437
11 | RRIRLRPPRLPRPRPRPMPMPRP | 0.0663
12 | RRIRLRPPRLPRPRPRPMPVPRP | 0.132
13 | RRIRLRPPRLPRPRPRPMQMPRP | -0.11
14 | RRIRLRPPRLPRPRPRPMQQPRP | 0.0192
15 | RRIRLRPPRLPRPRPRPMRSPRP | 0.0143
16 | RRIRLRPPRLPRPRPRPMTPPRP | -0.023
17 | RRIRLRPPRLPRPRPRPMTSPRP | 0.142
18 | RRIRLRPPRLPRPRPRPMTVPRP | -0.108
19 | RRIRLRPPRLPRPRPRPMTWPRP | -0.384
20 | RRIRLRPPRLPRPRPRPMYCPRP | -0.0105
21 | RRIRLRPPRLPRPRPRPNAEPRP | 0.143
22 | RRIRLRPPRLPRPRPRPNAGPRP | 0.0644
23 | RRIRLRPPRLPRPRPRPNANPRP | -0.101
24 | RRIRLRPPRLPRPRPRPNAPPRP | 0.0456
25 | RRIRLRPPRLPRPRPRPNARPRP | 0.1

Row | Sequence | shrunken log2 fold change
26 | RRIRLRPPRLPRPRPRPNAWPRP | 0.0821
27 | RRIRLRPPRLPRPRPRPNCQPRP | 0.0269
28 | RRIRLRPPRLPRPRPRPNCSPRP | 0.121
29 | RRIRLRPPRLPRPRPRPNDGPRP | -0.127
30 | RRIRLRPPRLPRPRPRPNDVPRP | -0.111
31 | RRIRLRPPRLPRPRPRPNEKPRP | -0.00697
32 | RRIRLRPPRLPRPRPRPNFGPRP | 0.0635
33 | RRIRLRPPRLPRPRPRPNGTPRP | -0.221
34 | RRIRLRPPRLPRPRPRPNIEPRP | -0.304
35 | RRIRLRPPRLPRPRPRPNKNPRP | -0.366
36 | RRIRLRPPRLPRPRPRPNLCPRP | 0.119
37 | RRIRLRPPRLPRPRPRPNLLPRP | 0.153
38 | RRIRLRPPRLPRPRPRPNLWPRP | 0.321
39 | RRIRLRPPRLPRPRPRPNMMPRP | -0.762
40 | RRIRLRPPRLPRPRPRPNNAPRP | -0.221
41 | RRIRLRPPRLPRPRPRPNNIPRP | -0.559
42 | RRIRLRPPRLPRPRPRPNPFPRP | -0.334
43 | RRIRLRPPRLPRPRPRPNQAPRP | -0.0446
44 | RRIRLRPPRLPRPRPRPNQIPRP | -0.253
45 | RRIRLRPPRLPRPRPRPNQVPRP | -0.294
46 | RRIRLRPPRLPRPRPRPNRYPRP | 0.0611
47 | RRIRLRPPRLPRPRPRPNTPPRP | -0.187
48 | RRIRLRPPRLPRPRPRPNVFPRP | -0.301
49 | RRIRLRPPRLPRPRPRPNVGPRP | 0.0116
50 | RRIRLRPPRLPRPRPRPNVMPRP | -0.0669

Row | Sequence | shrunken log2 fold change
51 | RRIRLRPPRLPRPRPRPNVYPRP | -0.186
52 | RRIRLRPPRLPRPRPRPNWGPRP | 0.00356
53 | RRIRLRPPRLPRPRPRPNYNPRP | -0.74
54 | RRIRLRPPRLPRPRPRPNYSPRP | -0.718
55 | RRIRLRPPRLPRPRPRPNYWPRP | -0.0686
56 | RRIRLRPPRLPRPRPRPPDWPRP | 0.427
57 | RRIRLRPPRLPRPRPRPPGTPRP | 0.448
58 | RRIRLRPPRLPRPRPRPPHYPRP | 0.0636
59 | RRIRLRPPRLPRPRPRPPIKPRP | -0.179
60 | RRIRLRPPRLPRPRPRPPIMPRP | -0.239
61 | RRIRLRPPRLPRPRPRPPIWPRP | 0.0261
62 | RRIRLRPPRLPRPRPRPPKFPRP | 0.028
63 | RRIRLRPPRLPRPRPRPPKKPRP | 0.265
64 | RRIRLRPPRLPRPRPRPPKPPRP | 0.555
65 | RRIRLRPPRLPRPRPRPPMGPRP | 0.194
66 | RRIRLRPPRLPRPRPRPPMRPRP | 1
67 | RRIRLRPPRLPRPRPRPPNPPRP | 0.423
68 | RRIRLRPPRLPRPRPRPPNRPRP | 0.0237
69 | RRIRLRPPRLPRPRPRPPPRPRP | 1.66
70 | RRIRLRPPRLPRPRPRPPQEPRP | 0.0145
71 | RRIRLRPPRLPRPRPRPPRVPRP | 0.536
72 | RRIRLRPPRLPRPRPRPPSTPRP | 0.00129
73 | RRIRLRPPRLPRPRPRPPTLPRP | 0.4
74 | RRIRLRPPRLPRPRPRPPTNPRP | 0.177
75 | RRIRLRPPRLPRPRPRPPTQPRP | 0.376

Row | Sequence | shrunken log2 fold change
76 | RRIRLRPPRLPRPRPRPPTTPRP | 0.449
77 | RRIRLRPPRLPRPRPRPPYAPRP | 0.296
78 | RRIRLRPPRLPRPRPRPPYHPRP | -0.317
79 | RRIRLRPPRLPRPRPRPPYVPRP | -0.0415
80 | RRIRLRPPRLPRPRPRPQCKPRP | -0.425
81 | RRIRLRPPRLPRPRPRPQDCPRP | 0.0274
82 | RRIRLRPPRLPRPRPRPQEHPRP | -0.167
83 | RRIRLRPPRLPRPRPRPQFIPRP | -0.433
84 | RRIRLRPPRLPRPRPRPQGRPRP | -0.136
85 | RRIRLRPPRLPRPRPRPQKGPRP | -0.183
86 | RRIRLRPPRLPRPRPRPQLHPRP | -0.123
87 | RRIRLRPPRLPRPRPRPQLMPRP | 0.0272
88 | RRIRLRPPRLPRPRPRPQMVPRP | -0.108
89 | RRIRLRPPRLPRPRPRPQPRPRP | 0.67
90 | RRIRLRPPRLPRPRPRPQQQPRP | 0.0294
91 | RRIRLRPPRLPRPRPRPQRDPRP | 0.231
92 | RRIRLRPPRLPRPRPRPQRRPRP | 0.0742
93 | RRIRLRPPRLPRPRPRPQRWPRP | 0.236
94 | RRIRLRPPRLPRPRPRPQSYPRP | -0.242
95 | RRIRLRPPRLPRPRPRPQTGPRP | -0.247
96 | RRIRLRPPRLPRPRPRPQTKPRP | -0.201
97 | RRIRLRPPRLPRPRPRPQVQPRP | -0.0263
98 | RRIRLRPPRLPRPRPRPQWAPRP | 0.123
99 | RRIRLRPPRLPRPRPRPQWLPRP | -0.141
100 | RRIRLRPPRLPRPRPRPQYDPRP | -0.155

Row | Sequence | shrunken log2 fold change
101 | RRIRLRPPRLPRPRPRPRAKPRP | 0.139
102 | RRIRLRPPRLPRPRPRPRASPRP | 0.516
103 | RRIRLRPPRLPRPRPRPRAVPRP | 0.821
104 | RRIRLRPPRLPRPRPRPRCDPRP | -0.0342
105 | RRIRLRPPRLPRPRPRPRCEPRP | 0.194
106 | RRIRLRPPRLPRPRPRPRDDPRP | 0.108
107 | RRIRLRPPRLPRPRPRPREMPRP | 0.149
108 | RRIRLRPPRLPRPRPRPRESPRP | 0.787
109 | RRIRLRPPRLPRPRPRPRETPRP | -0.0213
110 | RRIRLRPPRLPRPRPRPRFCPRP | -0.0895
111 | RRIRLRPPRLPRPRPRPRGEPRP | 0.207
112 | RRIRLRPPRLPRPRPRPRHTPRP | -0.236
113 | RRIRLRPPRLPRPRPRPRHVPRP | -0.127
114 | RRIRLRPPRLPRPRPRPRIFPRP | -0.263
115 | RRIRLRPPRLPRPRPRPRIPPRP | 0.09
116 | RRIRLRPPRLPRPRPRPRKWPRP | 0.184
117 | RRIRLRPPRLPRPRPRPRLAPRP | 0.624
118 | RRIRLRPPRLPRPRPRPRLCPRP | 0.35
119 | RRIRLRPPRLPRPRPRPRLWPRP | 0.399
120 | RRIRLRPPRLPRPRPRPRLYPRP | -0.26
121 | RRIRLRPPRLPRPRPRPRMIPRP | 0.119
122 | RRIRLRPPRLPRPRPRPRNAPRP | -0.0271
123 | RRIRLRPPRLPRPRPRPRNFPRP | -0.112
124 | RRIRLRPPRLPRPRPRPRPIPRP | 0.384
125 | RRIRLRPPRLPRPRPRPRPLPRP | 0.579

Row | Sequence | shrunken log2 fold change
126 | RRIRLRPPRLPRPRPRPRQCPRP | 0.283
127 | RRIRLRPPRLPRPRPRPRQDPRP | 0.152
128 | RRIRLRPPRLPRPRPRPRQSPRP | -0.0892
129 | RRIRLRPPRLPRPRPRPRRPPRP | 0.39
130 | RRIRLRPPRLPRPRPRPRSEPRP | 0.235
131 | RRIRLRPPRLPRPRPRPRSGPRP | 0.122
132 | RRIRLRPPRLPRPRPRPRSVPRP | -0.0722
133 | RRIRLRPPRLPRPRPRPRSYPRP | -0.227
134 | RRIRLRPPRLPRPRPRPRTDPRP | -0.0417
135 | RRIRLRPPRLPRPRPRPRVHPRP | 0.0142
136 | RRIRLRPPRLPRPRPRPRWQPRP | 0.217
137 | RRIRLRPPRLPRPRPRPSACPRP | -0.484
138 | RRIRLRPPRLPRPRPRPSCFPRP | 0.172
139 | RRIRLRPPRLPRPRPRPSEDPRP | -0.256
140 | RRIRLRPPRLPRPRPRPSEIPRP | -0.397
141 | RRIRLRPPRLPRPRPRPSFFPRP | -0.207
142 | RRIRLRPPRLPRPRPRPSFIPRP | -0.578
143 | RRIRLRPPRLPRPRPRPSGYPRP | -0.152
144 | RRIRLRPPRLPRPRPRPSHFPRP | -0.0938
145 | RRIRLRPPRLPRPRPRPSIMPRP | -0.319
146 | RRIRLRPPRLPRPRPRPSIPPRP | -0.711
147 | RRIRLRPPRLPRPRPRPSIRPRP | -0.727
148 | RRIRLRPPRLPRPRPRPSKIPRP | -0.349
149 | RRIRLRPPRLPRPRPRPSLVPRP | -0.0388
150 | RRIRLRPPRLPRPRPRPSMKPRP | -0.252
